Results from the supplement of paper PMC7125110.
± gives the standard error. Variants at the floor of the assay were thinned out.

B1: glmS ribozyme (parent)
chain: AUAAAAGCGCCAGAACUACAGAAAUGUAGUUGACGAGGAGGAGGUUUAUCGAAUUUUCGGCGGAUGCCUCCAAA

Key:
Conditions in all cases: with glucosamine-6-phosphate
[1] = variants of: B1; assay: self-cleavage kobs at 160 uM GlcN6P; higher = faster cleavage; RNA array
How it was run: (§1)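 Barcoded ribozyme variants on sequenced MiSeq chips were transcribed in situ by E. coli RNA polymerase and followed at 37 °C through a hybridised Cy3 probe. Glucosamine-6-phosphate at 40 μM to 10 mM in HEPES/KCl/Mg(OAc)2 buffer was flowed in, and tiles were imaged over ~14 h. Signals were normalised to baseline and to non-cleaving reference variants, and per-tile medians were fit to one- or two-exponential decays to give kobs. Weighted Michaelis–Menten fits across concentrations gave kcat and KM.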

[2] = variants of: B1; assay: self-cleavage kobs at 640 uM GlcN6P; higher = faster cleavage; RNA array
How it was run: as §1

[3] = variants of: B1; assay: self-cleavage kobs at 40 uM GlcN6P; higher = faster cleavage; RNA array
How it was run: as §1

[4] = variants of: B1; assay: self-cleavage kobs at 2500 uM GlcN6P; higher = faster cleavage; RNA array
How it was run: as §1

[5] = variants of: B1; assay: self-cleavage kobs at 10000 uM GlcN6P; higher = faster cleavage; RNA array
How it was run: as §1

| Variant | self-cleavage kobs at 160 uM GlcN6P [1] [s⁻¹] | self-cleavage kobs at 640 uM GlcN6P [2] [s⁻¹] | self-cleavage kobs at 40 uM GlcN6P [3] [s⁻¹] | self-cleavage kobs at 2500 uM GlcN6P [4] [s⁻¹] | self-cleavage kobs at 10000 uM GlcN6P [5] [s⁻¹] |
| --- | --- | --- | --- | --- | --- |
| C8G C34G A52G | < 1e-05 | < 1e-05 |  |  |  |
| A12U A36U C50A U69G |  |  | 9.31e-05 ± 2.3e-05 | 0.000241 ± 5.7e-05 | 6.54e-05 ± 1.6e-05 |
| A33U G38U G41C G66U | < 1e-05 |  |  | < 1e-05 |  |
| A6C C16G C71A |  |  | < 1e-05 |  |  |
| C8A C50U U55C | < 1e-05 | < 1e-05 |  |  |  |
| C10U A15U | < 1e-05 |  |  |  | < 1e-05 |
| A14G G29A A36U U47C C67U | < 1e-05 | < 1e-05 |  |  |  |
| G37U C50G | 7.65e-05 ± 3.7e-05 |  |  |  |  |
| G44C C58A | < 1e-05 | < 1e-05 |  | < 1e-05 | < 1e-05 |
| C11G G60U | < 1e-05 | < 1e-05 | < 1e-05 |  | < 1e-05 |
| C34G G38U G44C U49C | < 1e-05 |  |  |  |  |
| U45C U47C G62U C68U | < 1e-05 |  |  |  |  |
| A33C G41A | < 1e-05 | < 1e-05 |  |  |  |
| C11U G60C | < 1e-05 |  | < 1e-05 |  | < 1e-05 |
| A15C A42U U46G C50G | < 1e-05 | < 1e-05 |  | < 1e-05 |  |
| G7U G59U | < 1e-05 |  | < 1e-05 | < 1e-05 | < 1e-05 |
| C50U G51C | < 1e-05 | < 1e-05 |  | < 1e-05 |  |
| G29C G41C G60A | < 1e-05 | < 1e-05 |  | < 1e-05 | < 1e-05 |
| A6G C10U U57C | < 1e-05 |  |  |  |  |
| A14G G35U G40A | < 1e-05 |  |  |  |  |
| G62A U65G | < 1e-05 | < 1e-05 |  | < 1e-05 | < 1e-05 |
| U47C U49A | < 1e-05 |  |  | < 1e-05 | < 1e-05 |
| G44A U56A C70U | < 1e-05 | < 1e-05 |  |  |  |
| U30C U31G C50G C70G | 0.000158 ± 4.4e-05 | 0.000289 ± 0.0001 |  | 0.00026 ± 5.8e-05 |  |
| C8G C11A | < 1e-05 | < 1e-05 |  | < 1e-05 | < 1e-05 |
| C8G A14G U55G |  |  | < 1e-05 | < 1e-05 | < 1e-05 |
